Target: T1, TTP-2D (tristetraprolin, both CCCH zinc fingers) (UniProt P22893)
T1 sequence: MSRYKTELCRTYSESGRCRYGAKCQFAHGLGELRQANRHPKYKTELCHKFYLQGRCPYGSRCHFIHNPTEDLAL
Assay: fluorescence anisotropy

## UUUAUUUAUUU (ssRNA) [UUUAUUUAUUU-F (AU-rich element)]
  binding result: binds

Source: paper PMC5688852
